# In the supplement of paper PMC9112550, “Optimization of the antimicrobial peptide Bac7 by deep mutational scanning” (BMC Biology, 2022):
# Test system: Escherichia coli TOP10
# Assay: shrunken log2 fold change of peptide-encoding DNA abundance (4.5 h post-induction vs induction); higher = less antimicrobial activity (less host growth inhibition)
# Conditions: time post-induction: 4.5 h; library: site-saturation at positions 5, 18, 19, 20
# 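Note: peptides expressed intracellularly from a pBAD plasmid library in pooled LB shake-flask culture, induced with 0.3% L-arabinose, DNA abundance read by NGS, three biological replicates, DESeq2 with apeglm shrinkage.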
row,Sequence,shrunken log2 fold change
1,RRIRDRPPRLPRPRPRPIYVPRP,-0.0326
2,RRIRPRPPRLPRPRPRPHAKPRP,1.39
3,RRIRCRPPRLPRPRPRPRSKPRP,0.0908
4,RRIRGRPPRLPRPRPRPSPHPRP,0.435
5,RRIRARPPRLPRPRPRPTHLPRP,0.326
6,RRIRGRPPRLPRPRPRPDCCPRP,1.34
7,RRIRVRPPRLPRPRPRPGVQPRP,-0.0209
8,RRIRHRPPRLPRPRPRPWPSPRP,-0.00932
9,RRIRHRPPRLPRPRPRPLFNPRP,-0.58
10,RRIRGRPPRLPRPRPRPLFWPRP,0.544
11,RRIRVRPPRLPRPRPRPKPYPRP,0.0131
12,RRIRGRPPRLPRPRPRPGIAPRP,0.864
13,RRIRMRPPRLPRPRPRPTRGPRP,1.57
14,RRIRQRPPRLPRPRPRPFLHPRP,0.0118
15,RRIRARPPRLPRPRPRPKWQPRP,0.0511
16,RRIRMRPPRLPRPRPRPWALPRP,0.0536
17,RRIRKRPPRLPRPRPRPAGHPRP,0.0606
18,RRIRARPPRLPRPRPRPFCSPRP,-0.0878
19,RRIRPRPPRLPRPRPRPPSYPRP,-0.147
20,RRIRCRPPRLPRPRPRPAIQPRP,-0.0767
21,RRIRCRPPRLPRPRPRPYSRPRP,-0.0442
22,RRIRMRPPRLPRPRPRPGRRPRP,0.724
23,RRIRCRPPRLPRPRPRPAVGPRP,0.155
24,RRIRHRPPRLPRPRPRPSQGPRP,0.0306
25,RRIRHRPPRLPRPRPRPELKPRP,0.127

row,Sequence,shrunken log2 fold change
1,RRIRHRPPRLPRPRPRPLFVPRP,-0.471
2,RRIRTRPPRLPRPRPRPAAFPRP,-0.128
3,RRIRVRPPRLPRPRPRPIKWPRP,-0.161
4,RRIRPRPPRLPRPRPRPGSCPRP,0.111
5,RRIRSRPPRLPRPRPRPWPLPRP,-0.293
6,RRIRLRPPRLPRPRPRPNWVPRP,-0.0131
7,RRIRMRPPRLPRPRPRPTEGPRP,0.269
8,RRIRMRPPRLPRPRPRPRMNPRP,-0.138
9,RRIRYRPPRLPRPRPRPNMRPRP,0.117
10,RRIRYRPPRLPRPRPRPCNSPRP,-0.168
11,RRIRDRPPRLPRPRPRPKTTPRP,0.0604
12,RRIRCRPPRLPRPRPRPEFGPRP,0.241
13,RRIRERPPRLPRPRPRPQNQPRP,-0.612
14,RRIRPRPPRLPRPRPRPANNPRP,-0.353
15,RRIRHRPPRLPRPRPRPVHDPRP,0.079
16,RRIRIRPPRLPRPRPRPWRKPRP,-0.143
17,RRIRRRPPRLPRPRPRPIWWPRP,0.58
18,RRIRIRPPRLPRPRPRPISLPRP,-0.129
19,RRIRQRPPRLPRPRPRPCMCPRP,-0.147
20,RRIRVRPPRLPRPRPRPEQFPRP,0.0357
21,RRIRPRPPRLPRPRPRPPFCPRP,0.317
22,RRIRARPPRLPRPRPRPAKRPRP,0.47
23,RRIRERPPRLPRPRPRPKDDPRP,0.104
24,RRIRLRPPRLPRPRPRPQFFPRP,0.551
25,RRIRSRPPRLPRPRPRPEDFPRP,-0.149

row,Sequence,shrunken log2 fold change
1,RRIRIRPPRLPRPRPRPQSHPRP,-0.383
2,RRIRNRPPRLPRPRPRPCQCPRP,-0.00992
3,RRIRIRPPRLPRPRPRPMCSPRP,-0.119
4,RRIRERPPRLPRPRPRPYYPPRP,-0.14
5,RRIRNRPPRLPRPRPRPPLAPRP,0.697
6,RRIRVRPPRLPRPRPRPHQCPRP,0.00485
7,RRIRVRPPRLPRPRPRPTNPPRP,-0.296
8,RRIRGRPPRLPRPRPRPAWMPRP,0.554
9,RRIRQRPPRLPRPRPRPYLVPRP,-0.551
10,RRIRQRPPRLPRPRPRPNMKPRP,-0.336
11,RRIRYRPPRLPRPRPRPTDVPRP,-0.122
12,RRIRVRPPRLPRPRPRPFTAPRP,-0.317
13,RRIRSRPPRLPRPRPRPGKYPRP,-0.759
14,RRIRQRPPRLPRPRPRPYPMPRP,0.0253
15,RRIRGRPPRLPRPRPRPKRMPRP,0.675
16,RRIRYRPPRLPRPRPRPICIPRP,-0.08
17,RRIRYRPPRLPRPRPRPTTFPRP,-0.645
18,RRIRNRPPRLPRPRPRPFLAPRP,-0.164
19,RRIRCRPPRLPRPRPRPYEYPRP,-0.769
20,RRIRFRPPRLPRPRPRPWHAPRP,-0.162
21,RRIRGRPPRLPRPRPRPQLIPRP,0.139
22,RRIRWRPPRLPRPRPRPNHHPRP,-0.457
23,RRIRARPPRLPRPRPRPGNYPRP,0.208
24,RRIRIRPPRLPRPRPRPRLRPRP,-0.0272
25,RRIRERPPRLPRPRPRPQMFPRP,0.0221

row,Sequence,shrunken log2 fold change
1,RRIRKRPPRLPRPRPRPQLQPRP,0.199
2,RRIRMRPPRLPRPRPRPVYDPRP,-0.399
3,RRIRQRPPRLPRPRPRPGFFPRP,0.128
4,RRIRRRPPRLPRPRPRPQWCPRP,0.00425
5,RRIRLRPPRLPRPRPRPQYKPRP,-1.05
6,RRIRERPPRLPRPRPRPFYQPRP,-0.0388
7,RRIRYRPPRLPRPRPRPSTKPRP,-0.225
8,RRIRCRPPRLPRPRPRPHFGPRP,-0.219
9,RRIRYRPPRLPRPRPRPGKHPRP,0.0354
10,RRIRCRPPRLPRPRPRPYSFPRP,-0.414
11,RRIRGRPPRLPRPRPRPEFQPRP,0.226
12,RRIRERPPRLPRPRPRPSVGPRP,0.0861
13,RRIRYRPPRLPRPRPRPWNMPRP,-0.186
14,RRIRWRPPRLPRPRPRPFCGPRP,0.437
15,RRIRCRPPRLPRPRPRPTILPRP,-0.646
16,RRIRGRPPRLPRPRPRPAGHPRP,0.562
17,RRIRRRPPRLPRPRPRPLWCPRP,0.186
18,RRIRFRPPRLPRPRPRPDVGPRP,-0.239
19,RRIRIRPPRLPRPRPRPLPYPRP,-0.565
20,RRIRPRPPRLPRPRPRPISIPRP,-0.109
21,RRIRWRPPRLPRPRPRPLCDPRP,-0.0525
22,RRIRMRPPRLPRPRPRPFCMPRP,-0.33
23,RRIRKRPPRLPRPRPRPMGYPRP,-0.0267
24,RRIRWRPPRLPRPRPRPWHAPRP,0.0362
25,RRIRHRPPRLPRPRPRPNFDPRP,-0.0783

row,Sequence,shrunken log2 fold change
1,RRIRIRPPRLPRPRPRPYGGPRP,0.00177
2,RRIRVRPPRLPRPRPRPMWFPRP,-0.0469
3,RRIRGRPPRLPRPRPRPYLAPRP,0.398
4,RRIRARPPRLPRPRPRPGQGPRP,0.204
5,RRIRDRPPRLPRPRPRPNHKPRP,-0.661
6,RRIRSRPPRLPRPRPRPIDDPRP,-0.00277
7,RRIRSRPPRLPRPRPRPRTNPRP,0.057
8,RRIRYRPPRLPRPRPRPMKCPRP,-0.905
9,RRIRTRPPRLPRPRPRPHFEPRP,-0.323
10,RRIRFRPPRLPRPRPRPDFGPRP,0.0422
11,RRIRQRPPRLPRPRPRPEIMPRP,0.103
12,RRIRGRPPRLPRPRPRPEHRPRP,0.102
13,RRIRKRPPRLPRPRPRPTCGPRP,0.561
14,RRIRWRPPRLPRPRPRPISPPRP,-0.887
15,RRIRHRPPRLPRPRPRPSPSPRP,0.00467
16,RRIRDRPPRLPRPRPRPVHPPRP,0.184
17,RRIRDRPPRLPRPRPRPRIVPRP,-0.385
18,RRIRNRPPRLPRPRPRPFCVPRP,-0.0352
19,RRIRCRPPRLPRPRPRPCMPPRP,-0.66
20,RRIRDRPPRLPRPRPRPTPSPRP,0.368
21,RRIRSRPPRLPRPRPRPCPNPRP,-0.209
22,RRIRFRPPRLPRPRPRPSCGPRP,-0.235
23,RRIRARPPRLPRPRPRPTLPPRP,0.263
24,RRIRVRPPRLPRPRPRPVCDPRP,0.0894
25,RRIRKRPPRLPRPRPRPPIHPRP,0.327

row,Sequence,shrunken log2 fold change
1,RRIRSRPPRLPRPRPRPNCPPRP,-0.374
2,RRIRARPPRLPRPRPRPVPRPRP,0.536
3,RRIRFRPPRLPRPRPRPMDTPRP,-0.165
4,RRIRDRPPRLPRPRPRPEARPRP,1.96
5,RRIRGRPPRLPRPRPRPWCDPRP,0.0715
6,RRIRARPPRLPRPRPRPQCQPRP,0.457
7,RRIRARPPRLPRPRPRPWQVPRP,0.191
8,RRIRLRPPRLPRPRPRPNDSPRP,-0.0215
9,RRIRMRPPRLPRPRPRPLKKPRP,0.349
10,RRIRYRPPRLPRPRPRPKVPPRP,0.0215
11,RRIRGRPPRLPRPRPRPYMIPRP,0.0548
12,RRIRRRPPRLPRPRPRPGIYPRP,0.0548
13,RRIRARPPRLPRPRPRPMEFPRP,-0.117
14,RRIRNRPPRLPRPRPRPQWIPRP,-0.446
15,RRIRFRPPRLPRPRPRPQIHPRP,-0.995
16,RRIRARPPRLPRPRPRPLHMPRP,1.15
17,RRIRHRPPRLPRPRPRPYFHPRP,-0.955
18,RRIRGRPPRLPRPRPRPHCLPRP,0.196
19,RRIRDRPPRLPRPRPRPCDQPRP,0.0112
20,RRIRMRPPRLPRPRPRPACIPRP,0.112
21,RRIRSRPPRLPRPRPRPWRDPRP,0.0985
22,RRIRSRPPRLPRPRPRPHNQPRP,-0.271
23,RRIRRRPPRLPRPRPRPRLWPRP,0.273
24,RRIRRRPPRLPRPRPRPEMPPRP,0.207
25,RRIRCRPPRLPRPRPRPSDVPRP,0.00436
